# Results published in US20140357543A1.
# T1: alcalase (trade name "Alcalase 2.5L", Novozymes) (UniProt P00780)
# T1 sequence (looked up): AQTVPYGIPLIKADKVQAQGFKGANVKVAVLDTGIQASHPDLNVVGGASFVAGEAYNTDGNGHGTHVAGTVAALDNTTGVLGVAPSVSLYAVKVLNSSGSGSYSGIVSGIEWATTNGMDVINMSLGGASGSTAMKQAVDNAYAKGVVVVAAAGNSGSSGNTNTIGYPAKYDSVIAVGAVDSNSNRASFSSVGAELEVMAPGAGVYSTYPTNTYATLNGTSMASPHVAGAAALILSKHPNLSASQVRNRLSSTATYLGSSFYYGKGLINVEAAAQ
# Molecular target: T1, alcalase (trade name "Alcalase 2.5L", Novozymes)
# Experiment: cell-based or functional assay
Protease activity upon dilution (%) immediately after preparation,Remaining activity (%) immediately after preparation,Binder
80%,15%,proteinaceous protease inhibitor of SEQ ID NO:30 (protein) MSSVEKKPEGVNTGAGDRHNLKTAWPELVGKSVEEAKKVILQDKSEAQIIVLPVGTIVTMEYRIDRVRLFVDKLDNIAQVPRVG
80%,2%,proteinaceous protease inhibitor of SEQ ID NO:4 (protein) TDTGDHHNQKTEWPELVGKSVEEAKKVILQDKSEAQIAVLPVGTIVTMEYRIDRVRLFVDSLDKIAQVPRVG
100%,10%,proteinaceous protease inhibitor of SEQ ID NO:20 (protein) TDTGDHHNQKTEWPELVGKSVEEAKKVILQDKSEAQIVVLPVGTIVTMEYRIDRVRLFVDSLDKIAQVPGVG
25%,4%,proteinaceous protease inhibitor of SEQ ID NO:13 (protein) TDTGDHHNQKTEWPELVGKSVEEAKKVILQDKSEAQIVVLPVGTIVTMEYKIDRVRLFVDSLDKIAQVPRVG
85%,18%,proteinaceous protease inhibitor of SEQ ID NO:9 (protein) TDTGDHHNQKTEWPELVGKSVEEAKKVILQDKSEAQIVVLPVGTIVTMEARIDRVRLFVDSLDKIAQVPRVG
100%,13%,proteinaceous protease inhibitor of SEQ ID NO:21 (protein) TDTGDHHNQKTEWPELVGKSVEEAKKVILQDKSEAQIVVLPVGTIVTMEYRIDRVRLFVDSLDKIAQVPKVG
95%,9%,proteinaceous protease inhibitor of SEQ ID NO:16 (protein) TDTGDHHNQKTEWPELVGKSVEEAKKVILQDKSEAQIVVLPVGTIVTMEYRVDRVRLFVDSLDKIAQVPRVG
85%,23%,proteinaceous protease inhibitor of SEQ ID NO:8 (protein) TDTGDHHNQKTEWPELVGKSVEEAKKVILQDKSEAQIVVLPVGTIVTGEYRIDRVRLFVDSLDKIAQVPRVG
80%,3%,proteinaceous protease inhibitor of SEQ ID NO:15 (protein) TDTGDHHNQKTEWPELVGKSVEEAKKVILQDKSEAQIVVLPVGTIVTMEYRADRVRLFVDSLDKIAQVPRVG
80%,1%,proteinaceous protease inhibitor of SEQ ID NO:25 (protein) TDTGDHHNQKTEWPELVGKSVEEAKKVILQDKSEAQIAVLPVGTIVTMEYRIDRVRLFVDSLDKIAQVPAVG

# The next lines start with the binder.
Binder,Protease activity upon dilution (%) immediately after preparation,Remaining activity (%) immediately after preparation
proteinaceous protease inhibitor of SEQ ID NO:34 (protein) MSSVEKKPEGVNTGAGDRHNLKTEWPELVGKSVEEAKKVILQDKSEAQIIVLPVGTIVTMEYRADRVRLFVDKLDNIAQVPRVG,75%,1%
proteinaceous protease inhibitor of SEQ ID NO:35 (protein) MSSVEKKPEGVNTGAGDRHNLKTEWPELVGKSVEEAKKVILQDKSEAQIIVLPVGTIVTMEYRIARVRLFVDKLDNIAQVPRVG,80%,2%
proteinaceous protease inhibitor of SEQ ID NO:32 (protein) MSSVEKKPEGVNTGAGDRHNLKTEWPELVGKSVEEAKKVILQDKSEAQIIVLPVGTIVTMEARIDRVRLFVDKLDNIAQVPRVG,73%,15%
proteinaceous protease inhibitor of SEQ ID NO:36 (protein) MSSVEKKPEGVNTGAGDRHNLKTEWPELVGKSVEEAKKVILQDKSEAQIIVLPVGTIVTMEYRIDRVRLFVDKLDNIAQVPAVG,81%,1%
proteinaceous protease inhibitor of SEQ ID NO:31 (protein) MSSVEKKPEGVNTGAGDRHNLKTEWPELVGKSVEEAKKVILQDKSEAQIAVLPVGTIVTMEYRIDRVRLFVDKLDNIAQVPRVG,75%,2%
proteinaceous protease inhibitor of SEQ ID NO:33 (protein) MSSVEKKPEGVNTGAGDRHNLKTEWPELVGKSVEEAKKVILQDKSEAQIIVLPVGTIVTMEYAIDRVRLFVDKLDNIAQVPRVG,18%,1%
proteinaceous protease inhibitor of SEQ ID NO:26 (protein) TDTGDHHNQKTDWPELVGKSVEEAPKVILQDKSEAPIAVLPVGTLVTAEAAAARVRLFVDSLDKIAQVPAVG,85%,19%
proteinaceous protease inhibitor of SEQ ID NO:2 (protein) TDTGDHHNQKTDWPELVGKSVEEAKKVILQDKSEAQIVVLPVGTIVTMEYRIDRVRLFVDSLDKIAQVPRVG,100%,10%
proteinaceous protease inhibitor of SEQ ID NO:11 (protein) TDTGDHHNQKTEWPELVGKSVEEAKKVILQDKSEAQIVVLPVGTIVTMEFRIDRVRLFVDSLDKIAQVPRVG,90%,8%
proteinaceous protease inhibitor of SEQ ID NO:22 (protein) TDTGDHHNQKTEWPELVGKSVEEAKKVILQDKSEAQIAVLPVGTIVTMEYAADRVRLFVDSLDKIAQVPRVG,82%,1%
proteinaceous protease inhibitor of SEQ ID NO:17 (protein) TDTGDHHNQKTEWPELVGKSVEEAKKVILQDKSEAQIVVLPVGTIVTMEYRIERVRLFVDSLDKIAQVPRVG,95%,9%
proteinaceous protease inhibitor of SEQ ID NO:27 (protein) TDTGDHHNQKTKWPELVGKSVEEAKKVILQDKSEAQIVVLPVGTIVTMEYRIDRVRLFVDSLDKIAQVPRVG,98%,16%
proteinaceous protease inhibitor of SEQ ID NO:18 (protein) TDTGDHHNQKTEWPELVGKSVEEAKKVILQDKSEAQIVVLPVGTIVTMEYRIARVRLFVDSLDKIAQVPRVG,85%,3%
proteinaceous protease inhibitor of SEQ ID NO:7 (protein) TDTGDHHNQKTEWPELVGKSVEEAKKVILQDKSEAQIVVLPVGTIVTAEYRIDRVRLFVDSLDKIAQVPRVG,86%,25%
proteinaceous protease inhibitor of SEQ ID NO:24 (protein) TDTGDHHNQKTEWPELVGKSVEEAKKVILQDKSEAQIVVLPVGTIVTGEYRIDRVRLFVDSLDKIAQVPAVG,82%,20%
proteinaceous protease inhibitor of SEQ ID NO:14 (protein) TDTGDHHNQKTEWPELVGKSVEEAKKVILQDKSEAQIVVLPVGTIVTMEYHIDRVRLFVDSLDKIAQVPRVG,85%,5%
proteinaceous protease inhibitor of SEQ ID NO:3 (protein) TDTGDHHNQKTAWPELVGKSVEEAKKVILQDKSEAQIVVLPVGTIVTMEYRIDRVRLFVDSLDKIAQVPRVG,89%,7%
proteinaceous protease inhibitor of SEQ ID NO:19 (protein) TDTGDHHNQKTEWPELVGKSVEEAKKVILQDKSEAQIVVLPVGTIVTMEYRIDRVRLFVDSLDKIAQVPAVG,85%,2%
proteinaceous protease inhibitor of SEQ ID NO:12 (protein) TDTGDHHNQKTEWPELVGKSVEEAKKVILQDKSEAQIVVLPVGTIVTMEYAIDRVRLFVDSLDKIAQVPRVG,20%,2%
proteinaceous protease inhibitor of SEQ ID NO:28 (protein) TDTGDHHNQKTEWPELVGKSVEEAKKVILQDKSEAQIVVLPVGTIVTMEGRIDRVRLFVDSLDKIAQVPRVG,90%,18%
proteinaceous protease inhibitor of SEQ ID NO:10 (protein) TDTGDHHNQKTEWPELVGKSVEEAKKVILQDKSEAQIVVLPVGTIVTMELRIDRVRLFVDSLDKIAQVPRVG,90%,9%
proteinaceous protease inhibitor of SEQ ID NO:29 (protein) TDTGDHHNQKTEWPELVGKSVEEAKKVILQDKSEAQIVVLPVGTIVTMEYRIDRVRLFVDSLDKIAQVPNVG,95%,19%
proteinaceous protease inhibitor of SEQ ID NO:23 (protein) TDTGDHHNQKTEWPELVGKSVEEAKKVILQDKSEAQIAVLPVGTIVTMEYRAARVRLFVDSLDKIAQVPRVG,82%,1%
